# Assay results from the supplement of paper PMC7125110.
# ± gives the standard error. For some assays here: Fewer inactive variants are shown than the library holds.
# B1: glmS ribozyme (parent)
# chain: AUAAAAGCGCCAGAACUACAGAAAUGUAGUUGACGAGGAGGAGGUUUAUCGAAUUUUCGGCGGAUGCCUCCAAA
# Assays:
# Conditions in all cases: with glucosamine-6-phosphate
# [1] = variants of: B1; assay: kcat; higher = faster cleavage; RNA array
# In short: (§1)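 kobs was derived by fitting per-tile medians to one- or two-exponential decays after normalising signals to baseline and to non-cleaving reference variants. Those signals came from barcoded ribozyme variants transcribed in situ by E. coli RNA polymerase on sequenced MiSeq chips, followed through a hybridised Cy3 probe at 37 °C and imaged over ~14 h. Glucosamine-6-phosphate (40 μM to 10 mM) in HEPES/KCl/Mg(OAc)2 buffer was flowed in. Weighted Michaelis–Menten fits across concentrations then gave kcat and KM.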
# [2] = variants of: B1; assay: KM; higher = weaker cofactor use; RNA array
# In short: as §1
# [3] = variants of: B1; assay: self-cleavage kobs at 40 uM GlcN6P; higher = faster cleavage; RNA array
# In short: as §1
# [4] = variants of: B1; assay: self-cleavage kobs at 160 uM GlcN6P; higher = faster cleavage; RNA array
# In short: as §1
# [5] = variants of: B1; assay: self-cleavage kobs at 640 uM GlcN6P; higher = faster cleavage; RNA array
# In short: as §1
# [6] = variants of: B1; assay: self-cleavage kobs at 2500 uM GlcN6P; higher = faster cleavage; RNA array
# In short: as §1
# [7] = variants of: B1; assay: self-cleavage kobs at 10000 uM GlcN6P; higher = faster cleavage; RNA array
# In short: as §1
Variant,kcat [1],KM [2],self-cleavage kobs at 40 uM GlcN6P [3],self-cleavage kobs at 160 uM GlcN6P [4],self-cleavage kobs at 640 uM GlcN6P [5],self-cleavage kobs at 2500 uM GlcN6P [6],self-cleavage kobs at 10000 uM GlcN6P [7]
G40A U56A,0.00543 ± 0.0016 s⁻¹,3080 ± 1300 µM,9.01e-05 ± 2.5e-05 s⁻¹,0.000256 ± 5.7e-05 s⁻¹,0.00103 ± 0.00021 s⁻¹,0.00192 ± 0.00042 s⁻¹,0.00516 ± 0.0011 s⁻¹
G40A U56C,0.000181 ± 2.6e-05 s⁻¹,2280 ± 720 µM,,,4.68e-05 ± 8.5e-06 s⁻¹,8.42e-05 ± 1.1e-05 s⁻¹,0.000157 ± 1.9e-05 s⁻¹
G41A A42C,4.51e-05 ± 1.7e-05 s⁻¹,,,,,6.51e-05 ± 1.8e-05 s⁻¹,3.53e-05 ± 1.3e-05 s⁻¹
A39C U46C,0.00261 ± 0.00017 s⁻¹,2740 ± 280 µM,3.41e-05 ± 9.8e-06 s⁻¹,0.000168 ± 3.9e-05 s⁻¹,0.000488 ± 6.6e-05 s⁻¹,0.00122 ± 0.00023 s⁻¹,0.00206 ± 0.00025 s⁻¹
A39G G40C,9.61e-05 ± 1.3e-05 s⁻¹,,,,4.2e-05 ± 1.4e-05 s⁻¹,0.000101 ± 1.8e-05 s⁻¹,8.35e-05 ± 1.4e-05 s⁻¹
A39U C58A,0.000543 ± 0.00013 s⁻¹,,,,,8.13e-05 ± 1.4e-05 s⁻¹,0.000214 ± 2.7e-05 s⁻¹
A39U C58U,1.89e-05 ± 1e-06 s⁻¹,,,,,,
A39C,0.00949 ± 0.0017 s⁻¹,2180 ± 510 µM,0.000188 ± 3.3e-06 s⁻¹,0.000491 ± 1.8e-05 s⁻¹,0.00208 ± 7.2e-05 s⁻¹,0.00591 ± 0.00018 s⁻¹,0.00752 ± 0.00019 s⁻¹
A39U,0.0425 ± 0.0086 s⁻¹,3040 ± 720 µM,0.000604 ± 1e-05 s⁻¹,0.00176 ± 7.4e-05 s⁻¹,0.00683 ± 0.00016 s⁻¹,0.019 ± 0.00075 s⁻¹,0.0347 ± 0.0012 s⁻¹
A39G,0.0923 ± 0.019 s⁻¹,2540 ± 580 µM,0.00154 ± 3.7e-05 s⁻¹,0.00433 ± 0.00024 s⁻¹,0.0174 ± 0.0013 s⁻¹,0.0472 ± 0.0047 s⁻¹,0.075 ± 0.0037 s⁻¹
A39C U45A,0.0045 ± 0.001 s⁻¹,1430 ± 550 µM,0.000226 ± 5.6e-05 s⁻¹,0.000456 ± 9.8e-05 s⁻¹,0.00118 ± 0.0002 s⁻¹,0.00392 ± 0.001 s⁻¹,0.00397 ± 0.00058 s⁻¹
A39C U45C,0.000523 ± 3.8e-05 s⁻¹,3080 ± 440 µM,,,9.68e-05 ± 1.7e-05 s⁻¹,0.000214 ± 3.8e-05 s⁻¹,0.000408 ± 4.5e-05 s⁻¹
G38U G40A,< 1e-05 s⁻¹,,,,,,
G40U A42U,0.000115 ± 2e-05 s⁻¹,,,2.53e-05 ± 1.2e-05 s⁻¹,4.15e-05 ± 9.6e-06 s⁻¹,0.000109 ± 1.3e-05 s⁻¹,9.45e-05 ± 1.4e-05 s⁻¹
A39U C68G,0.000151 ± 1.6e-05 s⁻¹,998 ± 310 µM,,,5.37e-05 ± 7.8e-06 s⁻¹,0.000126 ± 1.2e-05 s⁻¹,0.000127 ± 1.3e-05 s⁻¹
